Reference: patent US20200062804A1 (ADRX, published 2020)
Non-standard residues stand in square brackets, D forms with d. No end group written: not given here. hArg = N=C(N)NCCCC[C@H](N)C(=O)O; Chg = N[C@H](C(=O)O)C1CCCCC1; NMeK = CN[C@@H](CCCCN)C(=O)O; Phg = N[C@H](C(=O)O)c1ccccc1

T1: Nat1 (LTIITLE) (also: TFA salt)
T1 peptide: LTIITLE


Target: T1, Nat1 (LTIITLE)
Assay: cell-based or functional assay

Binder	IC50, Thiofiavin T aggregation assay [µM]
IR[Chg]RRYR [Ile-Arg-Chg-Arg-Arg-Tyr-Arg]	0.081
[dF][dF][dR][dF][dH][dR][dR] [ffrfhrr]	0.104
LFRYYQK	0.1
IR[Phg]RRYR [Ile-Arg-Phg-Arg-Arg-Tyr-Arg]	0.124
YRLRYLR	0.099
I[hArg]I[hArg]RYR [Ile-homoArg-Ile-homoArg-Arg-Tyr-Arg]	0.03
LRIRFFR	0.09
WTIKLWH	0.084
LRI[NMeK]YHR [LRI(N-Me)KYHR]	0.125
RFYRYLR	0.107
LVIRYHR	0.101
LTIRYYK	0.093

Continued, values first:

IC50, Thiofiavin T aggregation assay [µM]	Binder
0.139	[dH][dW][dR][dY][dH][dR][dR] [hwryhrr]
0.118	[dY][dQ][dY][dY][dY][dQ][dR] [yqyyyqr]
0.087	[dK][dY][dR][dW][dY][dR][dH] [kyrwyrh]
0.088	[dF][dW][dR][dW][dH][dR] [fwrwhr]
0.097	[dH][dL][dR][dI][dW][dR][dN] [hlriwrn]
0.112	[dY][dQ][dW][dR][dH][dW][dR] [yqwrhwr]
0.081	[dR][dF][dY][dR][dR][dH][dR] [rfyrrhr]
0.108	[dL][dW][dR][dR][dY][dH][dR] [lwrryhr]
0.115	[dR][dW][dY][dW][dH][dH][dR] [rwywhhr]
0.132	[dR][dQ][dW][dY][dH][dW][dR] [rqwyhwr]
0.11	[dR][dI][dR][dW][dY][dW][dK] [rirwywk]
0.117	[dR][dF][dE][dF][dR][dH][dR] [rfefrhr]
0.116	[dS][dF][dW][dY][dK][dR][dR] [sfwykrr]
0.138	[dH][dQ][dR][dY][dY][dW][dR] [hqryywr]
